The values that follow come from publication PMC2148051, “Crystal structures of Leptospira interrogans FAD-containing ferredoxin-NADP^+ reductase and its complex with NADP^+” (BMC Structural Biology, 2007).

Series [1] addresses T1, LepFNR (Leptospira interrogans, UniProt Q8EY89).
T1 construct: gene LA_4327; expressed in E. coli (pET32JO-LepFNR) as thioredoxin fusion, thioredoxin removed with thrombin; FAD holoenzyme; C-terminal residue Tyr314
Nature of the series: difference absorption spectroscopy titration. The format is binding. An excerpt:
difference absorption spectroscopy titration on LepFNR

The next series deals with T2, P. sativum FNR (Lathyrus oleraceus, UniProt P10933).
T2 construct: gene PETH; plastidic enzyme
T2 sequence (P10933 53-360): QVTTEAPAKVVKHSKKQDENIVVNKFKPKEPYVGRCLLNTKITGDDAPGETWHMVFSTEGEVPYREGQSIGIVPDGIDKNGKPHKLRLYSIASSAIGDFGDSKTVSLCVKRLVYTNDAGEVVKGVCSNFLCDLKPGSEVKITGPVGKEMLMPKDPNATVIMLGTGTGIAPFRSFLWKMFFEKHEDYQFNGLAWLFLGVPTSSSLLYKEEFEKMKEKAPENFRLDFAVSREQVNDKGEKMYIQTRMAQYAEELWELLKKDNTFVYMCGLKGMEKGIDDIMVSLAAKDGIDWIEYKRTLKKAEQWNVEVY
Put plainly: difference absorption spectroscopy titration. It is filed as binding. To be noted: read-out: Kd (μM, NADP^+). An excerpt:
difference absorption spectroscopy titration on P. sativum FNR

Series [2] has as its target T1, LepFNR. Put plainly: X-ray crystal structure, […] Å. The format is binding. To be noted: noncovalently bound prosthetic group, extended conformation.
In series [3] the test system is NC(=O)C1=CN([C@@H]2O[C@H](COP(=O)(O)OP(=O)(O)OC[C@H]3O[C@@H](n4cnc5c(N)ncnc54)[C@H](OP(=O)(O)O)[C@@H]3O)[C@@H](O)[C@H]2O)C=CC1. Put plainly: purified protein. The settings on record: 1 mM potassium ferricyanide, NADPH regenerated with glucose-6-phosphate dehydrogenase, 50 mM Tris-HCl, pH 8, 30°C.
Substrate in the series “purified protein”: NC(=O)C1=CN([C@@H]2O[C@H](COP(=O)(O)OP(=O)(O)OC[C@H]3O[C@@H](n4cnc5c(N)ncnc54)[C@H](OP(=O)(O)O)[C@@H]3O)[C@@H](O)[C@H]2O)C=CC1
Nature of the series: purified protein. The format is biochemical, Lathyrus oleraceus. To be noted: 1 mM potassium ferricyanide, NADPH regenerated with glucose-6-phosphate dehydrogenase, 50 mM Tris-HCl, pH 8, 30°C.

T1 sequence (Q8EY89 entry or part of it): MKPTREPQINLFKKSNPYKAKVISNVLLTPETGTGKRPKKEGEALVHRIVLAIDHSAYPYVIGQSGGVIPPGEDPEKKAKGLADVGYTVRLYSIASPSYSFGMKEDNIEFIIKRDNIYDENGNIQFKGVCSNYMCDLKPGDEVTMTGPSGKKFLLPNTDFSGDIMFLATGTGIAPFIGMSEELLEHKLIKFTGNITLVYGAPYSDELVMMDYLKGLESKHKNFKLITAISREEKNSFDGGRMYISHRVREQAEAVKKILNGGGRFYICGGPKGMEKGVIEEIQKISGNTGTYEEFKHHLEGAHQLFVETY

For `NC(=O)c1ccc[n+]([C@@H]2O[C@H](COP(=O)(O)OP(=O)(O)OC[C@H]3O[C@@H](n4cnc5c(N)ncnc54)[C@H](OP(=O)(O)O)[C@@H]3O)[C@@H](O)[C@H]2O)c1` [NADP^+], the figures for the Kd on LepFNR [1] and at P. sativum FNR were 43 ± 3 µM and 32 ± 2 µM, respectively.
Take `Cc1cc2nc3c(=O)[nH]c(=O)nc-3n(C[C@H](O)[C@H](O)[C@H](O)COP(=O)(O)OP(=O)(O)OC[C@H]3O[C@@H](n4cnc5c(N)ncnc54)[C@H](O)[C@@H]3O)c2cc1C` [FAD]: the “X-ray crystal structure, 2.43 Å” value at LepFNR [2] is “LepFNR accommodates the FAD molecule in an extended conformation between the two enzyme domains”.
Regarding “LepFNR (Leptospira interrogans serovar Lai str. 56601)”, in series [3], the Km was 19.5 ± 1.7 µM, the kcat was determined as 258 ± 13 s⁻¹ and the kcat/Km is 1.32e+07 M⁻¹ s⁻¹.

B1: P. sativum FNR (Lathyrus oleraceus) (protein)
chain: T2 sequence (P10933 53-360)
notes: plastidic enzyme
For the molecule B1, in “purified protein”, the Km was determined as 19.0 ± 1.6 µM, the kcat is 324 ± 16 s⁻¹ and the kcat/Km stood at 1.71e+07 M⁻¹ s⁻¹.
